To fix the notation:
B1: Mu_02D09_VH (SEQ ID NO: 31)_D31A (antibody, V domains shown)
VH: EVQLVESGGGLVKPGGSLTLSCAASGFTFSAYGMHWLRQAPEKGLEWVAYISSGSRAVFFADTVKGRFTISRDNAKNTLFLQMTSLRSDDTAMYYCARDRYDGRGFAYWGQGTLVTVSA
VL: DIVLTQSPATLSVTPGDSVSLSCRASQSISNNLHWYQQTSHESPRLLITYASQSISGIPSRFSGSGSGTDFTLSINSVETEDFGMYFCQQSNSWPLTFGAGTKLELKR
B2: Mu_02D09_VL (SEQ ID NO: 33)_I29A (antibody, V domains shown)
VH: B1 VH with A31D
VL: B1 VL with I29A
B3: Mu_02D09_VH (SEQ ID NO: 31)_R104A (antibody, V domains shown)
VH: B1 VH with A31D, R104A
VL: B1 VL
B4: Mu_02D09_VL (SEQ ID NO: 33)_Q27A (antibody, V domains shown)
VH: B1 VH with A31D
VL: B1 VL with Q27A
B5: Mu_02D09_VL (SEQ ID NO: 33)_W94A (antibody, V domains shown)
VH: B1 VH with A31D
VL: B1 VL with W94A
B6: Mu_02D09_VH (SEQ ID NO: 31)_Y101A (antibody, V domains shown)
VH: B1 VH with A31D, Y101A
VL: B1 VL
B7: Mu_02D09_VH (SEQ ID NO: 31)_D62A (antibody, V domains shown)
VH: B1 VH with A31D, D62A
VL: B1 VL
B8: Mu_02D09_VH (SEQ ID NO: 31)_S52A (antibody, V domains shown)
VH: B1 VH with A31D, S52A
VL: B1 VL
B9: Mu_02D09_VL (SEQ ID NO: 33)_L96A (antibody, V domains shown)
VH: B1 VH with A31D
VL: B1 VL with L96A
B10: Mu_02D09_VH (SEQ ID NO: 31)_Y32A (antibody, V domains shown)
VH: B1 VH with A31D, Y32A
VL: B1 VL
B11: Mu_02D09_VL (SEQ ID NO: 33)_S56A (antibody, V domains shown)
VH: B1 VH with A31D
VL: B1 VL with S56A
B12: Mu_02D09_VH (SEQ ID NO: 31)_H35A (antibody, V domains shown)
VH: B1 VH with A31D, H35A
VL: B1 VL
B13: Mu_02D09_VH (SEQ ID NO: 31)_D102A (antibody, V domains shown)
VH: B1 VH with A31D, D102A
VL: B1 VL
B14: Mu_02D09_VH (SEQ ID NO: 31)_D99A (antibody, V domains shown)
VH: B1 VH with A31D, D99A
VL: B1 VL
B15: Mu_02D09_VH (SEQ ID NO: 31)_Y50A (antibody, V domains shown)
VH: B1 VH with A31D, Y50A
VL: B1 VL
B16: Mu_02D09_VH (SEQ ID NO: 31)_G33A (antibody, V domains shown)
VH: B1 VH with A31D, G33A
VL: B1 VL
B17: Mu_09E09_VH (SEQ ID NO: 35)_S35A (antibody, V domains shown)
VH: DVKLVESGEGLVKPGGSLKLSCAASGFTFSSYAMAWVRQTPEKRLEWVAYISSGGDYIYYADTVKGRFTISRDNARNTLYLQMSSLKSEDTAMYYCTRDPITGTFAYWGQGTLVTVSA
VL: DLQMTQTTSSLSASLGDRVTISCRASQDINNYLNWYQQKPDGTVKLLIYYTSTLHSGVPSRFSGSGSGTDYSLTISNLEQEDIATYFCQQGNTLPWTFGGGTKLEIKR
B18: Mu_09E09_VH (SEQ ID NO: 35)_Y59A (antibody, V domains shown)
VH: B17 VH with A35S, Y59A
VL: B17 VL
B19: Mu_09E09_VL (SEQ ID NO: 37)_Y50A (antibody, V domains shown)
VH: B17 VH with A35S
VL: B17 VL with Y50A
B20: Mu_09E09_VL (SEQ ID NO: 37)_Y32A (antibody, V domains shown)
VH: B17 VH with A35S
VL: B17 VL with Y32A
B21: Mu_09E09_VH (SEQ ID NO: 35)_P100A (antibody, V domains shown)
VH: B17 VH with A35S, P100A
VL: B17 VL
B22: Mu_09E09_VH (SEQ ID NO: 35)_I101A (antibody, V domains shown)
VH: B17 VH with A35S, I101A
VL: B17 VL
B23: Mu_09E09_VH (SEQ ID NO: 35)_T102A (antibody, V domains shown)
VH: B17 VH with A35S, T102A
VL: B17 VL
B24: Mu_09E09_VL (SEQ ID NO: 37)_N34A (antibody, V domains shown)
VH: B17 VH with A35S
VL: B17 VL with N34A
B25: Mu_09E09_VH (SEQ ID NO: 35)_Y57A (antibody, V domains shown)
VH: B17 VH with A35S, Y57A
VL: B17 VL
B26: Mu_09E09_VH (SEQ ID NO: 35)_D99A (antibody, V domains shown)
VH: B17 VH with A35S, D99A
VL: B17 VL
B27: Mu_09E09_VL (SEQ ID NO: 37)_Q90A (antibody, V domains shown)
VH: B17 VH with A35S
VL: B17 VL with Q90A
B28: Mu_09E09_VH (SEQ ID NO: 35)_F105A (antibody, V domains shown)
VH: B17 VH with A35S, F105A
VL: B17 VL
B29: Mu_09E09_VH (SEQ ID NO: 35)_Y50A (antibody, V domains shown)
VH: B17 VH with A35S, Y50A
VL: B17 VL

Residue numbers refer to the chain shown, from its start.

In general, Kd refers to a measure of binding affinity in units of concentration. A word on the koff: it is a measure of how fast the partners let go of each other. Broadly, the kon is the rate constant with which the complex forms.

This experiment has as its target T1, ANTIBODY EXPRESSION CONTROL.
T1 construct: also called mouse anti-canine antibody (capture reagent of the expression control ELISA)
Nature of the experiment: SPR Biacore, expression control. As for the experimental part: The affinity with which candidate mAbs bind canine, feline, and human (SEQ ID NO: 122; Human_OSMR) (R&D Systems, Minneapolis, Minn.) OSMR was determined using surface plasmon resonance (SPR) on a Biacore system (Biacore Life Sciences (GE Healthcare), Uppsala, Sweden). To avoid affinity differences associated with differential surface preparation that can occur when immobilizing antibodies to surfaces; OSMR from each species was directly conjugated to individual surfaces. Immobilization was obtained by amine coupling 5 μg/mL OSMR using N-hydroxysuccinimide (NHS)/1-Ethyl-3-(3-dimethylaminopropyl) carbodiimide (EDC) chemistry. Chips were quenched with ethanolamine and the affinity with which all candidate mAbs bound to the immobilized OSMR was evaluated. All curves were fit to a 1:1 model. […] Results for affinity measurements are described herein.
Data from an ELISA represents an equilibrium state where the antibody is allowed to associate and dissociate over a one-hour period resulting in steady-state binding. Using Biacore, the target protein is immobilized to a surface and the antibody is passed over this surface in a mobile liquid phase. Protein-protein interaction is determined from changes in the surface resonance which allows for calculation of association (kₐ), disassociation (kd), and affinity constant (KD). While not wishing to be bound to one hypothesis we present data from ELISA and Biacore experiments, using the same preparation of antibody, that may result in agreement between the two methods with respect to binding but also may show contradictory results due to the nature of the binding kinetics and different assay dynamics. The data presented in Table A (in combination with experimental results from yeast display mutational analysis in Example 21) allow for the definition of a structure:function relationship to be defined between the anti-OSMR antibodies described here and their ability to bind and block IL-31 and OSM-mediated signaling through the OSMR receptor.
Background: In SPR one partner is held on a chip, and binding of the other changes the refractive index at the surface.
Take B1: the Kd came out at 0.0685 nM, the off-rate (koff) worked out at 8.32e-05 s⁻¹ and the kon worked out at 1.21e+06 M⁻¹ s⁻¹.
The like results for B2 were, in that order, 0.714 nM, 9.47e-05 s⁻¹ and 133000 M⁻¹ s⁻¹.
As for B3, the Kd is 0.229 nM, the dissociation rate constant (koff) worked out at 2.41e-05 s⁻¹ and the kon stood at 105000 M⁻¹ s⁻¹.
On to B4, for which the dissociation constant Kd amounted to 1.2 nM, the koff came to 0.00019 s⁻¹ and the kon came out at 158000 M⁻¹ s⁻¹.
The like results for B5 were, in that order, 0.0977 nM, 3.16e-05 s⁻¹ and 323000 M⁻¹ s⁻¹.
The like results for B6 were, in that order, 0.28 nM, 4.11e-05 s⁻¹ and 147000 M⁻¹ s⁻¹.
The like results for B7 were, in that order, 0.0019 nM, 2.45e-07 s⁻¹ and 129000 M⁻¹ s⁻¹.
Take B8: the Kd is 0.0233 nM, the koff is 7.55e-06 s⁻¹ and the on-rate (kon) amounted to 323000 M⁻¹ s⁻¹.
B9: the Kd was 0.0659 nM, the dissociation rate constant (koff) worked out at 2.43e-05 s⁻¹ and the kon is 370000 M⁻¹ s⁻¹.
The like results for B10 were, in that order, 0.366 nM, 4.43e-05 s⁻¹ and 121000 M⁻¹ s⁻¹.
For B11, in that order: 0.844 nM, 0.000111 s⁻¹ and 132000 M⁻¹ s⁻¹.
The like results for B12 were, in that order, 0.803 nM, 0.000112 s⁻¹ and 139000 M⁻¹ s⁻¹.
As to B13, the Kd was 0.547 nM, the off-rate (koff) came to 7.4e-05 s⁻¹ and the kon was 135000 M⁻¹ s⁻¹.
The like results for B14 were, in that order, 1.63 nM, 0.000384 s⁻¹ and 235000 M⁻¹ s⁻¹.
For B15, in that order: 0.00259 nM, 3.68e-07 s⁻¹ and 142000 M⁻¹ s⁻¹.
For B16, in that order: 0.0225 nM, 7.35e-06 s⁻¹ and 327000 M⁻¹ s⁻¹.
Consider B17, for which the Kd was 0.18 nM, the off-rate (koff) amounted to 5.34e-05 s⁻¹ and the kon came out at 297000 M⁻¹ s⁻¹.
For B18, in that order: 0.147 nM, 4.52e-05 s⁻¹ and 307000 M⁻¹ s⁻¹.
The like results for B19 were, in that order, 0.257 nM, 7.96e-05 s⁻¹ and 310000 M⁻¹ s⁻¹.
For B20, in that order: 0.294 nM, 8.76e-05 s⁻¹ and 298000 M⁻¹ s⁻¹.
Turning to B21, the Kd was found to be 0.0786 nM, the dissociation rate constant (koff) stood at 2.35e-05 s⁻¹ and the on-rate (kon) is 300000 M⁻¹ s⁻¹.
Consider B22, for which the Kd was 0.172 nM, the koff was determined as 5.4e-05 s⁻¹ and the kon was determined as 314000 M⁻¹ s⁻¹.
The like results for B23 were, in that order, 0.172 nM, 5.33e-05 s⁻¹ and 311000 M⁻¹ s⁻¹.
Take B24: the dissociation constant Kd worked out at 0.317 nM, the koff amounted to 8.91e-05 s⁻¹ and the kon amounted to 281000 M⁻¹ s⁻¹.
As to B25, the equilibrium dissociation constant (Kd) amounted to 0.208 nM, the koff was found to be 6.34e-05 s⁻¹ and the kon was 305000 M⁻¹ s⁻¹.
Regarding B26, the Kd was found to be 0.219 nM, the koff turned out to be 6.88e-05 s⁻¹ and the association rate constant (kon) came to 314000 M⁻¹ s⁻¹.
For B27, in that order: 0.249 nM, 7.12e-05 s⁻¹ and 286000 M⁻¹ s⁻¹.
For B28, in that order: 0.138 nM, 4.66e-05 s⁻¹ and 338000 M⁻¹ s⁻¹.
B29: the Kd was 0.179 nM, the off-rate (koff) turned out to be 5.4e-05 s⁻¹ and the on-rate (kon) turned out to be 301000 M⁻¹ s⁻¹.

Values taken from patent US20220177594A1 (ZOETIS SERVICES, published 2022).
